# Patent publication US20040131613A1 (published 2004)
# Biological target: T1, human TNF-α (human, UniProt P01375 77-233)
# T1 construct: It was biotinylated in the plaque lift and on-rate ELISA, and coated on plates or beads in the other assays; also called hTNF-α; hTNF
# Assay: kinetic exclusion assay (KinExA 3000), 40 pM Fab with 400 pM hTNF-α, time course
# Protocol: Next, binding kinetics of three of the Fab fragments described in Table 4 were determined in a kinetic exclusion assay. Affinity measurements were performed on a KinExA™3000 instrument (Sapidyne Instruments, Inc., Boise, Id.) using Fab fragments (A10K, A9K, and A10P) released from the periplasmic space whose concentration was determined by a quantitative ELISA. Briefly, antigen and antibody fragment were allowed to react in solution and the fraction of unbound reagent was determined by capture and measured on a bead support. Binding kinetics can be determined or calculated from the amount of unbound reagent. For instance, after interaction between TNF-α and a Fab fragment has occurred in solution, binding of the unreacted, free Fab fragment to TNF-α coated beads can be measured on the instrument by detection with a labeled secondary antibody to the Fab fragment (e.g., a goat anti-IgG (heavy and light)). […] After the incubation, the amount of unbound Fab in the equilibrated samples was determined on the KinExA™3000 instrument according to the manufacturer's instructions. Kd values were determined by the instrument software.
# To measure kₒₙ, individual Fab fragments at a concentration of 40 pM were mixed with 400 pM of hTNF-α. […] The resulting data was used to calculate the kₒₙ with the instrument software. koff was calculated by using the formula Kd=koff/kₒₙ.
# T1 sequence (P01375 77-233 limits assumed): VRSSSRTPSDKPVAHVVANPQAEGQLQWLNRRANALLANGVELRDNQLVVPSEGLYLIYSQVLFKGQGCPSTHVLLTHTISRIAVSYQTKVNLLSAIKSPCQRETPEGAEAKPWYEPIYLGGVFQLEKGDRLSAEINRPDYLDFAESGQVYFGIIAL
binder,measurement,value
"A10K Fab fragment (Fab, V domains shown, Fab released from the E. coli periplasm; The light chain is kappa, since it was detected with anti-human kappa; Mutations against hu1: light S31Y, M55R) VH: EVQLVESGGGLVQPGGSLRLSCAASGFKFSNHWMNWVRQAPGKGLEWVGEIRSKSMNSATHYAESVKGRFTISRDDSKNSLYLQMNSLKTEDTAVYYCARNYYGSTYDHWGQGTLVTVSS VL: EIVLTQSPDFQSVTPKEKVTITCRASQFVGYSIHWYQQKPDQSPKLLIKYASESRSGVPSRFSGSGSGTDFTLTINSLEAEDAATYYCQQSHSWHFTFGQGTKVEIK",kon,3.92e+06 to 7.51e+06 M⁻¹ s⁻¹
